Paper PMC3597659
Like-named read-outs stand apart in the source and are kept apart here.

Columns and labels:
HMGB1-WT [1] = target: T1, HMGB1-WT (Homo sapiens, UniProt P09429 2-215); experiment: fluorescence anisotropy
RAG1c (core RAG1) [2] = target: T2, RAG1c (core RAG1) (Mus musculus, UniProt P15919 384-1008); experiment: fluorescence anisotropy
T2 sequence: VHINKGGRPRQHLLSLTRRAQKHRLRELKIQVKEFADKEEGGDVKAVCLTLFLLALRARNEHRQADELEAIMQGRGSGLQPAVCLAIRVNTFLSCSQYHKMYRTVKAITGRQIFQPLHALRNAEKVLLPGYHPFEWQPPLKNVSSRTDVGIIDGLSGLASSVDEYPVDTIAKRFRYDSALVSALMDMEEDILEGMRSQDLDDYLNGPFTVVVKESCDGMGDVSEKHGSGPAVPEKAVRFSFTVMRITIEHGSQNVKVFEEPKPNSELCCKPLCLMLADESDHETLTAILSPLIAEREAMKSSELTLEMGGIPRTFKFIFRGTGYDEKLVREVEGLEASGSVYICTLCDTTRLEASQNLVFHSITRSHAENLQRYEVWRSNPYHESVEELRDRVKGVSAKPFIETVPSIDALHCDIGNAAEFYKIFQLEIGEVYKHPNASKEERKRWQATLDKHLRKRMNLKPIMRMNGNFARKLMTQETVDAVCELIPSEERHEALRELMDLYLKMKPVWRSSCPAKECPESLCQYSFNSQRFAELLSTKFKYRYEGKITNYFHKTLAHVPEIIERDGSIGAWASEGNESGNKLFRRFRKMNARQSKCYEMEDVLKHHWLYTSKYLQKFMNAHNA

RAG1c (core RAG1) [3] = target: T2, RAG1c (core RAG1); experiment: fluorescence anisotropy; remark: listed apart in the source
HMGB1-WT [4] = target: T1, HMGB1-WT; experiment: fluorescence anisotropy; remark: listed apart in the source
[5] = target: T3, HMGB1-WT;RAG1c (core RAG1) (Homo sapiens;Mus musculus, UniProt P09429;P15919 2-215;384-1008, |); experiment: pull-down
HMGB1-WT [6] = target: T1, HMGB1-WT; experiment: pull-down
[7] = target: T3, HMGB1-WT;RAG1c (core RAG1); experiment: pull-down; remark: listed apart in the source
HMGB1-A488 = HMGB1-A488 (Homo sapiens, UniProt P09429 2-215, C23A;A34C;C45A;C106A); experiment: EMSA
[8] = target: HMGB1-WT;RAG1c (core RAG1);GST-RAG2c (core RAG2) (Homo sapiens;Mus musculus;Mus musculus, UniProt P09429;P15919;P21784 2-215;384-1008;1-387, ||); experiment: EMSA
[9] = target: HMGB1-A488;RAG1c (core RAG1) (Homo sapiens;Mus musculus, UniProt P09429;P15919 2-215;384-1008, C23A;A34C;C45A;C106A|); experiment: fluorescence anisotropy
Chain of HMGB1-A488;RAG1c (core RAG1) (P09429 2-215 C23A/A34C/C45A/C106A, one chain of several): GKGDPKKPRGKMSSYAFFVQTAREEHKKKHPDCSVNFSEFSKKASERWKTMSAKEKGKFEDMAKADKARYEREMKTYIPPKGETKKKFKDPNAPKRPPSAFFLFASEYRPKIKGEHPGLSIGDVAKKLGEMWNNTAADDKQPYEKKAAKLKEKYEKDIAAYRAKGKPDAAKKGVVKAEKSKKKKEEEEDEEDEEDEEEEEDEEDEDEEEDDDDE

T1 sequence (P09429 2-215): as the sequence (P09429 2-215 C23A/A34C/C45A/C106A, one chain of several) above, with A22C, C33A, A44C, A105C counted along it
T3 sequence (P09429 2-215, one chain of several): as the sequence (P09429 2-215 C23A/A34C/C45A/C106A, one chain of several) above, with A22C, C33A, A44C, A105C counted along it
Chain of HMGB1-A488 (P09429 2-215 C23A/A34C/C45A/C106A): as the sequence (P09429 2-215 C23A/A34C/C45A/C106A, one chain of several) above
Chain of HMGB1-WT;RAG1c (core RAG1);GST-RAG2c (core RAG2) (P09429 2-215, chain 1 of 2): as the sequence (P09429 2-215 C23A/A34C/C45A/C106A, one chain of several) above, with A22C, C33A, A44C, A105C counted along it
Chain of HMGB1-WT;RAG1c (core RAG1);GST-RAG2c (core RAG2) (P21784 1-387, chain 3 of 2): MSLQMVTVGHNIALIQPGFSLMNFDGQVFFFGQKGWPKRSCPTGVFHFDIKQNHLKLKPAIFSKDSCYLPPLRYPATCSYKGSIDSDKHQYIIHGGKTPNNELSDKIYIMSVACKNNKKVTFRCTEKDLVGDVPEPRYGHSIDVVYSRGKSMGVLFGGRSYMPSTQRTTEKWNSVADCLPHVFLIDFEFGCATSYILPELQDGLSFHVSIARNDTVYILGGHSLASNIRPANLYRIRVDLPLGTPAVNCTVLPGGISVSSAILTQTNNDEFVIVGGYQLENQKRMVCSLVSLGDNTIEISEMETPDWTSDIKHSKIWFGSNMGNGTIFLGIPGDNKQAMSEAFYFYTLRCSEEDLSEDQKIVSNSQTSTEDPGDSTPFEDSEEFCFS

B1: 23RSS-A488 (dsDNA)
DNA 1: GATCTGGCCTGTCTTACACAGTGATGGAAGCTCAATCTGAACTCTGACAAAAACCTCGAGCGGAG
DNA 2: CTCCGCTCGAGGTTTTTGTCAGAGTTCAGATTGAGCTTCCATCACTGTGTAAGACAGGCCAGATC
For B1, which Kd (HMGB1-WT [1]) is on record?
The Kd was 57 nM.

And the Kd (RAG1c (core RAG1) [2])?
Its Kd is 78 nM.

B2: 23MUT-A488 (dsDNA)
DNA 1: GATCTGGCCTGTCTTAACGCAGTATGGAAGCTCAATCTGAACTCTGTGTCTCTGATCGAGCGGAG
DNA 2: CTCCGCTCGATCAGAGACACAGAGTTCAGATTGAGCTTCCATACTGCGTTAAGACAGGCCAGATC
Which Kd (RAG1c (core RAG1) [3]) does the source give for B2 here?
Its Kd is 104 nM.

And the Kd (HMGB1-WT [4])?
Its Kd is 66 nM.

B3: 23SCR-biotin (dsDNA)
DNA 1: GCTGCGTCTCAAGTTACGCTGCGAGGAATCCTGGTAAGATCTGCGTTAAGTCGGATTCATCTACG
DNA 2: CGTAGATGAATCCGACTTAACGCAGATCTTACCAGGATTCCTCGCAGCGTAACTTGAGACGCAGC
Does B3 bind [5]?
Result: binds

Does B3 bind (HMGB1-WT [6])?
Result: binds

B4: 23RSS-biotin (dsDNA)
DNA 1: B1 DNA 1
DNA 2: B1 DNA 2
Does B4 bind [7]?
Result: binds

B5: four-way junction (4WJ) (structured_DNA)
DNA 1: CCTCCGTCCTAGCAAGGGGCTGCTACCGGAAGGG
DNA 2: CCCTTCCGGTAGCAGCCTGAGCGGTGGTTGAAGG
DNA 3: CCTTCAACCACCGCTCAACTCAACTGCAGTCTGG
DNA 4: CCAGACTGCAGTTGAGTCCTTGCTAGGACGGAGG
Does B5 bind (HMGB1-A488)?
Result: binds

B6: 32P-23RSS (dsDNA)
DNA 1: B1 DNA 1
DNA 2: B1 DNA 2
Does B6 bind [8]?
Result: binds

B7: 23RSS (dsDNA)
DNA 1: B1 DNA 1
DNA 2: B1 DNA 2
Does B7 bind [9]?
Result: binds

B8: 23MUT (dsDNA)
DNA 1: B2 DNA 1
DNA 2: B2 DNA 2
Does B8 bind [9]?
Result: binds

B9: 23SCR (dsDNA)
DNA 1: B3 DNA 1
DNA 2: B3 DNA 2
Does B9 bind [9]?
Result: binds
